From patent EP4682164A1 (Curogen Technology Co., Ltd., dated 2026)

T1: human IL-17F (IL-17FF homodimer) (human, UniProt Q96PD4 31-163)
T1 construct: also called hIL-17F; hIL-17FF
T1 sequence (looked up): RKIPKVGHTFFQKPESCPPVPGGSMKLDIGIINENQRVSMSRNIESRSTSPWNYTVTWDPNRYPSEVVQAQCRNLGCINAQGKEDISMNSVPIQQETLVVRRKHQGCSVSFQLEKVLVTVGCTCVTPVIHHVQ


Experiments:
[1] = target: T2, human IL-17A (IL-17AA homodimer) (human, UniProt Q16552 20-155, limits assumed); assay: ELISA
T2 construct: also called hIL-17A; hIL-17AA

[2] = target: T1, human IL-17F (IL-17FF homodimer); assay: ELISA
human TNFα [3] = target: T3, human TNFα (human, UniProt P01375 77-233); assay: ELISA
T3 construct: also called hTNFα

[4] = target: T2, human IL-17A (IL-17AA homodimer); assay: cell-based or functional assay
[5] = target: T1, human IL-17F (IL-17FF homodimer); assay: cell-based or functional assay
human TNFα [6] = target: T3, human TNFα; assay: cell-based or functional assay
[7] = target: T2, human IL-17A (IL-17AA homodimer); assay: ELISA, cytokine coated on plate, binder titrated, HRP secondary antibody
[8] = target: T1, human IL-17F (IL-17FF homodimer); assay: as above
human TNFα [9] = target: T3, human TNFα; assay: as above

T2 sequence (Q16552 20-155 limits assumed): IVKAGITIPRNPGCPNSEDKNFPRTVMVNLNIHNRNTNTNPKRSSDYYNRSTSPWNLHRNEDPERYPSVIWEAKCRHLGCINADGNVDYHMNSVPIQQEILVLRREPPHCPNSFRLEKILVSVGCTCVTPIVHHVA
T3 sequence (P01375 77-233 limits assumed): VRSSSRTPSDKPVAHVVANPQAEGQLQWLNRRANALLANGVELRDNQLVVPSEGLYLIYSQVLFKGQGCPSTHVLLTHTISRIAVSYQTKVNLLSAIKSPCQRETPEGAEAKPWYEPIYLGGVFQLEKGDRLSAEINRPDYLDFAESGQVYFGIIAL

EC50 [1] [µg/mL] | EC50 [2] [µg/mL] | EC50 (human TNFα [3]) [µg/mL] | IC50 (ng/mL) of hIL-17A, SEAP reporter assay in HEK-Blue IL-17 cells [4] [ng/mL] | IC50 (ng/mL) of hIL-17F, SEAP reporter assay in HEK-Blue IL-17 cells [5] [ng/mL] | IC50 (ng/mL) of hTNFα, SEAP reporter assay in HEK-Blue TNFα cells (human TNFα [6]) [ng/mL] | EC50 [7] [µg/mL] | EC50 [8] [µg/mL] | EC50 (human TNFα [9]) [µg/mL] | Binder
0.0752 | 0.0702 | 0.068 | 20.9 | 1150 | 14.9 | 0.00924 | 0.13 | 0.0438 | T1-T4-14 (Fc fusion, also called T1c-Fc-T4g; IL-17RA/RC-Fc-TNFR2 (T1-T4-14)) LRLLDHRAPVCSQPGLNCTVKNSDCLDDSWIHPRNLTPSSPKDLQIQLHFAHTQQGDLVPVAHIEWTLQTDASILYLEGAELSVLQLDTNERLCVRFEFLSKLRHHHRRWRFTFSHFVVDPGQEYEVTVHHLPKPIPDGDPNHQSKNFLVPDCEHPRMKVTTPCMSSALPWLNVSADGDNVHLVLNVSEEQHFGLSLYWNQVQGPPKPRWHKNLTGPQIITLNHTDLVPCLCIQVWPLEPDSVRTNICPFREDPRAHQNLWQAARLRLLTLQSWLLDAPCSLPAEAALCWRAPGGDPCQPLVPPLSWENVTVDKVLEFPLLKGHPNLCVQVNSSEKLQLQECLWADSLGPLKDDVLLLETRGPQDNRSLCALEPSGCTSLPSKASTRAARLGEYLLQDLQSGQCLQLWDDDLGALWACPMDKYIHKTGIEGRMDRNTGRGGEEKKKEKEKEEQEERETKTPECPSHTQPLGVFLFPPKPKDTLMISRTPEVTCVVVDVSQEDPEVQFNWYVDGVEVHNAKTKPREEQFNSTYRVVSVLTVLHQDWLNGKEYKCKVSNKGLPSSIEKTISKAKGQPREPQVYTLPPSQEEMTKNQVSLTCLVKGFYPSDIAVEWESNGQPENNYKTTPPVLDSDGSFFLYSRLTVDKSRWQEGNVFSCSVMHEALHNHYTQKSLSLSLGKGGGGSGGGGSGGGGSLELPAQVAFTPYAPEPGSTCRLREYYDQTAQMCCAKCPPGQHAKVFCTKTSDTVCDSCEDSTYTQLWNWVPECLSCSSRCSSDQVETQACTREQNRICTCRPGWYCALSKQEGCRLCAPLSKCRPGFGVARPGTETSDVVCKPCAPGTFSNTTSSTDICRPHQICSVVAIPGNASMDAVCTSTSPTRSMAPGAVHLPQPVSTRSQHTQPTPGPSTAPSTSILLPMGPSPPAEGSTGD
0.0543 | 0.0621 | 0.0443 |  |  |  |  |  |  | T1-T4-14+GT6 (glycan sialylated T1-T4-14) (Fc fusion, glycan sialylation (co-expressed with B4GALT6, fed with UMnG and ManNAc), Same polypeptide as T1-T4-14, with increased sialylation; also called T1-T4-14 produced in pcDNA3.4+GT6; glycan sialylated IL-17RA/RC-Fc-TNFR2) LRLLDHRAPVCSQPGLNCTVKNSDCLDDSWIHPRNLTPSSPKDLQIQLHFAHTQQGDLVPVAHIEWTLQTDASILYLEGAELSVLQLDTNERLCVRFEFLSKLRHHHRRWRFTFSHFVVDPGQEYEVTVHHLPKPIPDGDPNHQSKNFLVPDCEHPRMKVTTPCMSSALPWLNVSADGDNVHLVLNVSEEQHFGLSLYWNQVQGPPKPRWHKNLTGPQIITLNHTDLVPCLCIQVWPLEPDSVRTNICPFREDPRAHQNLWQAARLRLLTLQSWLLDAPCSLPAEAALCWRAPGGDPCQPLVPPLSWENVTVDKVLEFPLLKGHPNLCVQVNSSEKLQLQECLWADSLGPLKDDVLLLETRGPQDNRSLCALEPSGCTSLPSKASTRAARLGEYLLQDLQSGQCLQLWDDDLGALWACPMDKYIHKTGIEGRMDRNTGRGGEEKKKEKEKEEQEERETKTPECPSHTQPLGVFLFPPKPKDTLMISRTPEVTCVVVDVSQEDPEVQFNWYVDGVEVHNAKTKPREEQFNSTYRVVSVLTVLHQDWLNGKEYKCKVSNKGLPSSIEKTISKAKGQPREPQVYTLPPSQEEMTKNQVSLTCLVKGFYPSDIAVEWESNGQPENNYKTTPPVLDSDGSFFLYSRLTVDKSRWQEGNVFSCSVMHEALHNHYTQKSLSLSLGKGGGGSGGGGSGGGGSLELPAQVAFTPYAPEPGSTCRLREYYDQTAQMCCAKCPPGQHAKVFCTKTSDTVCDSCEDSTYTQLWNWVPECLSCSSRCSSDQVETQACTREQNRICTCRPGWYCALSKQEGCRLCAPLSKCRPGFGVARPGTETSDVVCKPCAPGTFSNTTSSTDICRPHQICSVVAIPGNASMDAVCTSTSPTRSMAPGAVHLPQPVSTRSQHTQPTPGPSTAPSTSILLPMGPSPPAEGSTGD
 |  |  | 15.3 | 1240 |  |  | 0.0853 | 0.0627 | T1-T4-31 (Fc fusion, also called T1c-Fca-T4g; IL-17RA/RC-Fc-TNFR2) LRLLDHRAPVCSQPGLNCTVKNSDCLDDSWIHPRNLTPSSPKDLQIQLHFAHTQQGDLVPVAHIEWTLQTDASILYLEGAELSVLQLDTNERLCVRFEFLSKLRHHHRRWRFTFSHFVVDPGQEYEVTVHHLPKPIPDGDPNHQSKNFLVPDCEHPRMKVTTPCMSSALPWLNVSADGDNVHLVLNVSEEQHFGLSLYWNQVQGPPKPRWHKNLTGPQIITLNHTDLVPCLCIQVWPLEPDSVRTNICPFREDPRAHQNLWQAARLRLLTLQSWLLDAPCSLPAEAALCWRAPGGDPCQPLVPPLSWENVTVDKVLEFPLLKGHPNLCVQVNSSEKLQLQECLWADSLGPLKDDVLLLETRGPQDNRSLCALEPSGCTSLPSKASTRAARLGEYLLQDLQSGQCLQLWDDDLGALWACPMDKYIHKTGIEGRMDRNTGRGGEEKKKEKEKEEQEERETKTPECPSHTQPLGVFLFPPKPKDTLYITREPEVTCVVVDVSQEDPEVQFNWYVDGVEVHNAKTKPREEQFNSTYRVVSVLTVLHQDWLNGKEYKCKVSNKGLPSSIEKTISKAKGQPREPQVYTLPPSQEEMTKNQVSLTCLVKGFYPSDIAVEWESNGQPENNYKTTPPVLDSDGSFFLYSRLTVDKSRWQEGNVFSCSVMHEALHNHYTQKSLSLSLGKGGGGSGGGGSGGGGSLELPAQVAFTPYAPEPGSTCRLREYYDQTAQMCCAKCPPGQHAKVFCTKTSDTVCDSCEDSTYTQLWNWVPECLSCSSRCSSDQVETQACTREQNRICTCRPGWYCALSKQEGCRLCAPLSKCRPGFGVARPGTETSDVVCKPCAPGTFSNTTSSTDICRPHQICSVVAIPGNASMDAVCTSTSPTRSMAPGAVHLPQPVSTRSQHTQPTPGPSTAPSTSILLPMGPSPPAEGSTGD
 |  |  | 24.4 | 2740 | 354 | 0.00706 | 0.183 | 2.04 | T1-T4-07 (Fc fusion, also called T1c-Fc-T4wt; IL-17RA/RC-Fc-TNFR2) LRLLDHRAPVCSQPGLNCTVKNSDCLDDSWIHPRNLTPSSPKDLQIQLHFAHTQQGDLVPVAHIEWTLQTDASILYLEGAELSVLQLDTNERLCVRFEFLSKLRHHHRRWRFTFSHFVVDPGQEYEVTVHHLPKPIPDGDPNHQSKNFLVPDCEHPRMKVTTPCMSSALPWLNVSADGDNVHLVLNVSEEQHFGLSLYWNQVQGPPKPRWHKNLTGPQIITLNHTDLVPCLCIQVWPLEPDSVRTNICPFREDPRAHQNLWQAARLRLLTLQSWLLDAPCSLPAEAALCWRAPGGDPCQPLVPPLSWENVTVDKVLEFPLLKGHPNLCVQVNSSEKLQLQECLWADSLGPLKDDVLLLETRGPQDNRSLCALEPSGCTSLPSKASTRAARLGEYLLQDLQSGQCLQLWDDDLGALWACPMDKYIHKTGIEGRMDRNTGRGGEEKKKEKEKEEQEERETKTPECPSHTQPLGVFLFPPKPKDTLMISRTPEVTCVVVDVSQEDPEVQFNWYVDGVEVHNAKTKPREEQFNSTYRVVSVLTVLHQDWLNGKEYKCKVSNKGLPSSIEKTISKAKGQPREPQVYTLPPSQEEMTKNQVSLTCLVKGFYPSDIAVEWESNGQPENNYKTTPPVLDSDGSFFLYSRLTVDKSRWQEGNVFSCSVMHEALHNHYTQKSLSLSLGKGGGGSGGGGSGGGGSLELPAQVAFTPYAPEPGSTCRLREYYDQTAQMCCSKCSPGQHAKVFCTKTSDTVCDSCEDSTYTQLWNWVPECLSCGSRCSSDQVETQACTREQNRICTCRPGWYCALSKQEGCRLCAPLRKCRPGFGVARPGTETSDVVCKPCAPGTFSNTTSSTDICRPHQICNVVAIPGNASMDAVCTSTSPTRSMAPGAVHLPQPVSTRSQHTQPTPEPSTAPSTSFLLPMGPSPPAEGSTGD
0.0607 | 0.0455 | 0.0873 |  |  |  |  |  |  | T1-T4-14 produced in pcDNA3.4 (Fc fusion, Same named protein as T1-T4-14 but expressed from the pcDNA3.4 vector; also called IL-17RA/RC-Fc-TNFR2) LRLLDHRAPVCSQPGLNCTVKNSDCLDDSWIHPRNLTPSSPKDLQIQLHFAHTQQGDLVPVAHIEWTLQTDASILYLEGAELSVLQLDTNERLCVRFEFLSKLRHHHRRWRFTFSHFVVDPGQEYEVTVHHLPKPIPDGDPNHQSKNFLVPDCEHPRMKVTTPCMSSALPWLNVSADGDNVHLVLNVSEEQHFGLSLYWNQVQGPPKPRWHKNLTGPQIITLNHTDLVPCLCIQVWPLEPDSVRTNICPFREDPRAHQNLWQAARLRLLTLQSWLLDAPCSLPAEAALCWRAPGGDPCQPLVPPLSWENVTVDKVLEFPLLKGHPNLCVQVNSSEKLQLQECLWADSLGPLKDDVLLLETRGPQDNRSLCALEPSGCTSLPSKASTRAARLGEYLLQDLQSGQCLQLWDDDLGALWACPMDKYIHKTGIEGRMDRNTGRGGEEKKKEKEKEEQEERETKTPECPSHTQPLGVFLFPPKPKDTLMISRTPEVTCVVVDVSQEDPEVQFNWYVDGVEVHNAKTKPREEQFNSTYRVVSVLTVLHQDWLNGKEYKCKVSNKGLPSSIEKTISKAKGQPREPQVYTLPPSQEEMTKNQVSLTCLVKGFYPSDIAVEWESNGQPENNYKTTPPVLDSDGSFFLYSRLTVDKSRWQEGNVFSCSVMHEALHNHYTQKSLSLSLGKGGGGSGGGGSGGGGSLELPAQVAFTPYAPEPGSTCRLREYYDQTAQMCCAKCPPGQHAKVFCTKTSDTVCDSCEDSTYTQLWNWVPECLSCSSRCSSDQVETQACTREQNRICTCRPGWYCALSKQEGCRLCAPLSKCRPGFGVARPGTETSDVVCKPCAPGTFSNTTSSTDICRPHQICSVVAIPGNASMDAVCTSTSPTRSMAPGAVHLPQPVSTRSQHTQPTPGPSTAPSTSILLPMGPSPPAEGSTGD
